Test results published in patent EP3620472A1.

What was measured:
[1] = molecular target: recombinant mature human PAI-1 (24-402) stabilized in active conformation (N150H, K154T, Q319L, M354I) (human) (UniProt P05121); test: crystal structure, heavy chain, average of 4 complexes
[2] = molecular target: cynomolgus PAI-1 (cynomolgus (Macaca fascicularis)); test: crystal structure, light chain, average of 2 complexes
[3] = molecular target: cynomolgus PAI-1 (cynomolgus (Macaca fascicularis)); test: crystal structure, heavy chain, average of 2 complexes
[4] = molecular target: recombinant mature human PAI-1 (24-402) stabilized in active conformation (N150H, K154T, Q319L, M354I) (human) (UniProt P05121); test: crystal structure, light chain, average of 4 complexes

B1: Fab A44V11 (Fab, V domains shown)
VH: QMTLKESGPTLVKPTQTLSLTCSVSGDSMTNGYWNWIRQFPGKALEYMGYITYSGSTYYNPSLKGRITITRDTSKNQYYLTLSSVTTVDTATYYCARWHYGSPYYFDYWGQGTTLTVSS
VL: DIKMTQSPSSLSASVGDRVTITCKASQDINSYLSWLQQKPGKSPKTLIYRAQRSVEGVPSRFSGSGSGQDYSLTISSLQPEDLGIYYCLQYDEFPPTFGGGTKLEIK
A surface area of the interaction [1] of 674 Å^2, a surface area of the interaction [2] of 360 Å^2 and a surface area of the interaction [3] of 703 Å^2 were found for B1 in this work. For the same binder, the surface area of the interaction [4] was 372 Å^2.
